Test results as given in patent publication US20030167487A1 (Takeda / Millennium, published 2003).

Tests used:
human vWf [1] = target: T1, human vWf (human, UniProt P04275 764-2813); assay: platelet adhesion to vWf-coated 96-well plates (25-500 ng/well) with botrocetin 4 µM; bound platelets read by acid phosphatase activity
T1 construct: Plasma-type multimeric protein; It was coated on plates (25-500 ng/well) in the adhesion assay and FITC-labeled (F/P ratio 1-4) in the flow cytometry assay; also called FITC˜vWf
Experimental: 96-well plates were coated with various concentrations (25-500 ng/well) of human vWf overnight at 4° C. Pooled WP from mice were resuspended in Mg²⁺-free CFTH buffer (1.2×10⁸/mL) containing botrocetin (4 μM), and incubated immobilized human vWf for 1 hour at room temp. Following two PBS washes, bound platelets were lysed and intracellular acid phosphatase activity was quantitated calorimetrically using the substrate pNPP (Sigma).

human vWf [2] = target: T1, human vWf; assay: flow cytometry, FITC-vWf on mouse platelets in PRP stimulated with ADP and epinephrine (no botrocetin)

| Binder | binding result (human vWf [1]) | binding result (human vWf [2]) |
| --- | --- | --- |
| mouse GP Ib on platelets (receptor, whole, on cells; Native receptor on mouse platelets of GP V wt, +/- and -/- genotype, present there in complex with GP IX (and with GP V in wt); also called GP Ib-IX (complex on platelets)) chain 1: QHTCSISKVTSLLEVNCENKKLTALPADLPADTGILHLGENQLGTFSTASLVHFTHLTYLYLDRCELTSLQTNGKLIKLENLDLSHNNLKSLPSLGWALPALTTLDVSFNKLGSLSPGVLDGLSQLQELYLQNNDLKSLPPGLLLPTTKLKKLNLANNKLRELPSGLLDGLEDLDTLYLQRNWLRTIPKGFFGTLLLPFVFLHANSWYCDCEILYFRHWLQENANNVYLWKQGVDVKDTTPNVASVRCANLDNAPVYSYPGKGCPTSSGDTDYDDYDDIPDVPATRTEVKFSTNTKVHTTHWSLLAAAPSTSQDSQMISLPPTHKPTKKQSTFIHTQSPGFTTLPETMESNPTFYSLKLNTVLIPSPTTLEPTSTQATPEPNIQPMLTTSTLTTPEHSTTPVPTTTILTTPEHSTIPVPTTAILTTPKPSTIPVPTTATLTTLEPSTTPVPTTATLTTPEPSTTLVPTTATLTTPEHSTTPVPTTATLTTPEHSTTPVPTTATLTTPEPSTTLTNLVSTISPVLTTTLTTPESTPIETILEQFFTTELTLLPTLESTTTIIPEQNSFLNLPEVALVSSDTSESSPFLNSDFCCFLPLGFYVLGLLWLLFASVVLILLLTWTWHVTPHSLDMEQSAALATSTHTTSLEVQRARQVTMPRAWLLFLQGSLPTFRSSLFLWVRPNGRVGPLVAGRRPSALSQGRGQDLLGTVGIRYSGHSL chain 2: PAPCSCAGTLVDCGRRGLTWASLPAAFPPDTTELVLTGNNLTALPPGLLDALPALRAAHLGANPWRCDCRLLPLRAWLAGRPERAPYRDLRCVAPPALRGRLLPYVAEDELRAACAPGLLCWGALVAQLALLVLGLLHALLLALLLGRLRRLRARARARSIQEFSLTAPLVAESARGGAS | binds | – |
| mouse αIIbβ3 on platelets (receptor, whole, on cells; Native receptor on washed mouse platelets of GP V wt, +/- and -/- genotype; also called mouse fibrinogen receptor; GPIIb-IIIa) chain 1: LNLDSEKFSVYAGPNGSHFGFSVDFHKDKHGSVSIVVGAPRALNASQEETGAVFLCPWKANGGKCNPLLFDLRDETRNLGFQIFQTFKTGQGLGASVVSWNDVIVACAPWQHWNVLEKRDEAEKTPVGGCFLAQLQSGGRAEYSPCRANTMSSVYAESFRGDKRYCEAGFSLAVTQAGELVLGAPGGYFFLGLLARVPIENIISSYRPGTLLWHVSNQRFTYDNSNPVFFDGYRGYSVAVGEFDGDPSTTEYVSGAPTWSWTLGAVEILDSYYQPLHRLHGEQMASYFGHSVAVTDVNGDGRHDLLVGAPLYMESRADRKLAEVGRVYLFLQPKGPQALSTPTLLLTGTQLYGRFGSAIAPLGDLNRDGYNDIAVAAPYGGPSGQGQVLIFLGQSEGLSPRPSQVLDSPFPTGSGFGFSLRGAVDIDDNGYPDLIVGAYGASKVAVYRAQPVVMATVQLMVQDSLNPTLKNCVLDQTKTPVSCFNIQMCVGATGHNIPQKLHLKAELQLDLQKPRQGRRVLLLASQQASLTLSLDLGGRDKPICHTTGAFLRDEADFRDKLSPIVLSLNVSLPPEETGGAPAVVLHGETHVQEQTRIILDCGEDDLCVPQLRLTATAGDSPLLIGADNVLELKIEAANDGEGAYEAELAVHLPPGAHYMRALSNIEGFERLVCTQKKENESRVALCELGNPMKKDTRIGITMLVSVENLEEAGESVSFQLQVRSKNSQNPNSKVVMLPVAIQAEATVELRGNSFPASLVVAAEEGDREQEDLDRWVSRLEHTYELHNIGPGTVNGLRLLIHIPGQSQPSDLLYILDVQPQGGLLCSTQPSPKVDWKLSTPSPSSIRPVHHQRERRQAFLQGPKPGQQDPVLVSCDGSASCTVVECELREMVRGQRAMVTVQVMLGLSSLRQRPQEQFVLQSHAWFNVSSLPYSVPVVSLPSGQARVQTQLLRALEERAIPVWWVLVGVLGGLLLLTLLVLAMWKAGFFKRNRPPLEEDEEEE chain 2: ESNICTTRGVNSCQQCLAVSPVCAWCSDETLSQGSPRCNLKENLLKDNCAPESIEFPVSEAQILEARPLSSKGSGSSAQITQVSPQRIALRLRPDDSKIFSLQVRQVEDYPVDIYYLMDLSFSMKDDLSSIQTLGTKLASQMRKLTSNLRIGFGAFVDKPVSPYMYISPPQAIKNPCYNMKNACLPMFGYKHVLTLTDQVSRFNEEVKKQSVSRNRDAPEGGFDAIMQATVCDEKIGWRNDASHLLVFTTDAKTHIALDGRLAGIVLPNDGHCHIGTDNHYSASTTMDYPSLGLMTEKLSQKNINLIFAVTENVVSLYQNYSELIPGTTVGVLSDDSSNVLQLIVDAYGKIRSKVELEVRDLPEELSLSFNATCLNNEVIPGLKSCVGLKIGDTVSFSIEAKVRGCPQEKEQSFTIKPVGFKDSLTVQVTFDCDCACQAFAQPSSPRCNNGNGTFECGVCRCDQGWLGSMCECSEEDYRPSQQEECSPKEGQPICSQRGECLCGQCVCHSSDFGKITGKYCECDDFSCVRYKGEMCSGHGQCNCGDCVCDSDWTGYYCNCTTRTDTCMSTNGLLCSGRGNCECGSCVCVQPGSYGDTCEKCPTCPDACSFKKECVECKKFNRGTLHEENTCSRYCRDDIEQVKELTDTGKNAVNCTYKNEDDCVVRFQYYEDTSGRAVLYVVEEPECPKGPDILVVLLSVMGAILLIGLATLLIWKLLITIHDRKEFAKFEEERARAKWDTANNPLYKEATSTFTNITYRGT | – | no binding |
